In US20150354006:

Test system: recombinant nucleosome

NSD2 E1099K mutant protein, purified (Example 7), sequence (chain, as listed by the source E1099K): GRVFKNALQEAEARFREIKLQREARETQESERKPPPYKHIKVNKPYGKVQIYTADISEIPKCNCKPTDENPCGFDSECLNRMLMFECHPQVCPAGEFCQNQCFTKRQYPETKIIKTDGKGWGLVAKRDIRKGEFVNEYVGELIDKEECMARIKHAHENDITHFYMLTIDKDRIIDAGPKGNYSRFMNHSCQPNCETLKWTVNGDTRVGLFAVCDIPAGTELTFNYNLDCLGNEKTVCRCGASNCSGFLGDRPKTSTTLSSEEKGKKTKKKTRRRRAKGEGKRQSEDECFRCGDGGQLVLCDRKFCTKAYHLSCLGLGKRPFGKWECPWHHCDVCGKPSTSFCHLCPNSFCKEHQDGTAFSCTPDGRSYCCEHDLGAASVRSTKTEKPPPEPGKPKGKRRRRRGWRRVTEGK
NSD2 E1087Q mutation (Example 7), sequence (chain, as listed by the source E1087Q): as the sequence (chain, as listed by the source E1099K) above, with E133Q, K145E counted along it

NSD2 E1087Q mutation (Example 7)
SAH production by LC/MS/MS in an enzymatic reaction with SAM and nucleosome (FIG. 9): the NSD2 E1087Q mutation has less N-methyltransferase activity in each case

NSD2 E1099K mutant protein, purified (Example 7)
SAH production by LC/MS/MS in an enzymatic reaction with SAM and nucleosome (FIG. 9): the NSD2 E1099K protein gains extra activity on recombinant nucleosome compared to NSD2 WT
